Source: US20210077592A1, “COMPOSITION TO PREVENT INTESTINAL DAMAGE” (FUSION FARM S.R.L. SEMPLIFICATA, priority 2017, published 2021)

Tests used:
Caco-2 cells [1] = experiment: Lucifer Yellow (LY) assay of paracellular permeability in Caco-2 intestinal damage model; assay type: cell-based
Procedure: A protocol was developed based on Caco-2 cell inserts model (CACOREADY™ cells, lot no. 24 676 101716 and no. 24 680 111416, Readycell manufacturer) consisting in two steps:
1. Induction of epithelial damage (40 h incubation in glutamine free medium followed by stress induced by 60 mM ethanol for 4 h)
2. Evaluation of the single products first, and then applied in combination during stress induced by the absence of glutamine (60 h), and with subsequent stress induced by ethanol, to evaluate the efficacy in preventing damage. […]
Cells without damage induction (NC=without damage) and with damage induction (PC) were evaluated with the Lucifer Yellow (LY) assay, which verifies the integrity of the cellular junctions in presence of the test substance. […]
According to the experimental protocol, to evaluate the efficacy of the composition of the invention in damage prevention, sodium butyrate (2 mM concentration) and lactoferrin (400 μg/ml concentration), either alone or in combination, were applied on Caco-2 cells during stress induced by absence of glutamine, increasing the time of said deprivation, with respect to the conditions tested during the development of the model, and therefore of stress induction, to 60 hours, to make more evident differences in cells behavior in the different treatment situations. […] The parameters were evaluated at the end. […]

[2] = tested on: Occludin and Zonula Occludens in Caco-2 cells; experiment: Fluorescence immunolabeling of Occludin and Zonula Occludens in Caco-2 cells after damage induction; assay type: cell-based; conditions: pretreatment 60 h without glutamine, then 60 mM ethanol 4 h
Procedure: As it can be seen by FIG. 1, the damage induced an increase in permeability. The same cells without damage induction (NC) and with damage induction (PC), as indicated above, were further evaluated by fluorescence immunolabeling of Occludina and Zonula Occludens (proteins present in the intestinal membrane intracellular junctions).
(§1) According to the experimental protocol, to evaluate the efficacy of the composition of the invention in damage prevention, sodium butyrate (2 mM concentration) and lactoferrin (400 μg/ml concentration), either alone or in combination, were applied on Caco-2 cells during stress induced by absence of glutamine, increasing the time of said deprivation, with respect to the conditions tested during the development of the model, and therefore of stress induction, to 60 hours, to make more evident differences in cells behavior in the different treatment situations. At the end of 60 hours, the products were removed, and damage was induced for 4 h with 60 mM ethanol. The parameters were evaluated at the end.
To confirm the observed behavior, an evaluation using fluorescence immunolabeling of Occludin and Zonula Occludens was also performed.

[3] = Solubility of lactoferrin in aqueous solution in the presence of sodium butyrate; assay type: physicochemical; conditions: with or without added sodium butyrate
Procedure: Various solutions, with increasing ratios between sodium butyrate amount and lactoferrin amount, were prepared to verify the possible effect of sodium butyrate addition on lactoferrin solubility in aqueous solution.
In particular, ten different mixtures were prepared, whose weight rations are set out in the following Table 1, and the presence of undissolved body of lactoferrin was observed as a function of the increasing amount of sodium butyrate added to the solution.

Caco-2 cells [4] = experiment: Electron Microscopy (SEM) of microvilli of Caco-2 cells after damage induction; assay type: cell-based; conditions: pretreatment 60 h without glutamine, then 60 mM ethanol 4 h, 750x-10000x
Procedure: The same cells without damage induction (NC) and with damage induction (PC), as indicated above, were finally evaluated by Electron Microscopy (SEM) at different magnifications.
as §1
The same cells were finally evaluated also by Electron Microscopy SEM, at various magnifications.

B1: lactoferrin (protein, UniProt P02788 20-710, looked up)
Lactotransferrin: GRRRSVQWCAVSQPEATKCFQWQRNMRKVRGPPVSCIKRDSPIQCIQAIAENRADAVTLDGGFIYEAGLAPYKLRPVAAEVYGTERQPRTHYYAVAVVKKGGSFQLNELQGLKSCHTGLRRTAGWNVPIGTLRPFLNWTGPPEPIEAAVARFFSASCVPGADKGQFPNLCRLCAGTGENKCAFSSQEPYFSYSGAFKCLRDGAGDVAFIRESTVFEDLSDEAERDEYELLCPDNTRKPVDKFKDCHLARVPSHAVVARSVNGKEDAIWNLLRQAQEKFGKDKSPKFQLFGSPSGQKDLLFKDSAIGFSRVPPRIDSGLYLGSGYFTAIQNLRKSEEEVAARRARVVWCAVGEQELRKCNQWSGLSEGSVTCSSASTTEDCIALVLKGEADAMSLDGGYVYTAGKCGLVPVLAENYKSQQSSDPDPNCVDRPVEGYLAVAVVRRSDTSLTWNSVKGKKSCHTAVDRTAGWNIPMGLLFNQTGSCKFDEYFSQSCAPGSDPRSNLCALCIGDEQGENKCVPNSNERYYGYTGAFRCLAENAGDVAFVKDVTVLQNTDGNNNEAWAKDLKLADFALLCLDGKRKPVTEARSCHLAMAPNHAVVSRMDKVERLKQVLLHQQAKFGRNGSDCPDKFCLFQSETKNLLFNDNTECLARLHGKTTYEKYLGPQYVAGITNLKKCSTSPLLEACEFLRK
notes: antimicrobial and iron-carrying glycoprotein; B=400 μg/ml lactoferrin
reduction in LY flux with respect to positive control (PC) (Caco-2 cells [1]; product applied during 60 h glutamine deprivation, then 60 mM ethanol 4 h, 2 mM sodium butyrate and/or 400 μg/ml lactoferrin): about 12% | permeability (LY), result in words (Caco-2 cells [1]; treatment at the same time as damage induction): not substantially changed compared to the negative control | fluorescence intensity / expression of tight junction proteins (Occludin, Zonula Occludens), result in words [2]: good level of expression of the tight junctions' markers | dissolution of lactoferrin in aqueous solution, result in words [3]: completely undissolved body in suspension | effect on microvilli / villous atrophy by SEM, result in words (Caco-2 cells [4]): positive effect on the villi functionality
